In patent publication US20250042956A1:

How the values were obtained:
[1] = biological target: AT1G22950.1 ICU11 (Arabidopsis thaliana) (UniProt Q3ED68); experiment: IP-MS rep 1
[2] = biological target: AT3G10480.3 NAC050 (Arabidopsis thaliana) (UniProt Q9SQX9); experiment: IP-MS rep 1
[3] = biological target: AT3G10490.2 NAC052 (Arabidopsis thaliana) (UniProt Q9SQY0); experiment: IP-MS rep 1
[4] = biological target: AT3G18210.1 CP2 (Arabidopsis thaliana) (UniProt P0DO23); experiment: IP-MS rep 1
Sequence of AT3G18210.1 CP2 (Arabidopsis thaliana) (P0DO23 whole entry): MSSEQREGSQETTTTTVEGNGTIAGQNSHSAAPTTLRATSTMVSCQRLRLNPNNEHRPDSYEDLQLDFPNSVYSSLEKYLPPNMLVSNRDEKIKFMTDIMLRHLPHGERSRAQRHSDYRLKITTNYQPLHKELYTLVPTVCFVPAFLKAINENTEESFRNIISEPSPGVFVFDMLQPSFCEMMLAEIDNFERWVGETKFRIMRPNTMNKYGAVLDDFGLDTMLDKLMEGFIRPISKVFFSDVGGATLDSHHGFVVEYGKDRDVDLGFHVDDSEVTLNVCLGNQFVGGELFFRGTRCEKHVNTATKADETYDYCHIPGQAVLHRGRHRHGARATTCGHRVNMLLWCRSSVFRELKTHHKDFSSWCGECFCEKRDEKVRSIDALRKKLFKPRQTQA

[5] = biological target: AT3G20740.1 FIE (Arabidopsis thaliana) (UniProt Q9LT47); experiment: IP-MS rep 1
Sequence of AT3G20740.1 FIE (Arabidopsis thaliana) (Q9LT47 whole entry): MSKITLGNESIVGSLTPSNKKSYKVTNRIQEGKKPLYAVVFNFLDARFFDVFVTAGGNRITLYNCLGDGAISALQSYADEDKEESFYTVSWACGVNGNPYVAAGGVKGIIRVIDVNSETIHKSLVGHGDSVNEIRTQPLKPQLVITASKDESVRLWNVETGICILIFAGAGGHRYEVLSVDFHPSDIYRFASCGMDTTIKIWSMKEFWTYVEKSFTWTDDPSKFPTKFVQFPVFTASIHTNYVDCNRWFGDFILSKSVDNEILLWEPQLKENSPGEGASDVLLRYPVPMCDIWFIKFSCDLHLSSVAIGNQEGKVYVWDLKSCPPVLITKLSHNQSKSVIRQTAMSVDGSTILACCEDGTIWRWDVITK

[6] = biological target: AT5G11530.1 EMF1 (Arabidopsis thaliana) (UniProt Q9LYD9); experiment: IP-MS rep 1
Sequence of AT5G11530.1 EMF1 (Arabidopsis thaliana) (Q9LYD9 whole entry): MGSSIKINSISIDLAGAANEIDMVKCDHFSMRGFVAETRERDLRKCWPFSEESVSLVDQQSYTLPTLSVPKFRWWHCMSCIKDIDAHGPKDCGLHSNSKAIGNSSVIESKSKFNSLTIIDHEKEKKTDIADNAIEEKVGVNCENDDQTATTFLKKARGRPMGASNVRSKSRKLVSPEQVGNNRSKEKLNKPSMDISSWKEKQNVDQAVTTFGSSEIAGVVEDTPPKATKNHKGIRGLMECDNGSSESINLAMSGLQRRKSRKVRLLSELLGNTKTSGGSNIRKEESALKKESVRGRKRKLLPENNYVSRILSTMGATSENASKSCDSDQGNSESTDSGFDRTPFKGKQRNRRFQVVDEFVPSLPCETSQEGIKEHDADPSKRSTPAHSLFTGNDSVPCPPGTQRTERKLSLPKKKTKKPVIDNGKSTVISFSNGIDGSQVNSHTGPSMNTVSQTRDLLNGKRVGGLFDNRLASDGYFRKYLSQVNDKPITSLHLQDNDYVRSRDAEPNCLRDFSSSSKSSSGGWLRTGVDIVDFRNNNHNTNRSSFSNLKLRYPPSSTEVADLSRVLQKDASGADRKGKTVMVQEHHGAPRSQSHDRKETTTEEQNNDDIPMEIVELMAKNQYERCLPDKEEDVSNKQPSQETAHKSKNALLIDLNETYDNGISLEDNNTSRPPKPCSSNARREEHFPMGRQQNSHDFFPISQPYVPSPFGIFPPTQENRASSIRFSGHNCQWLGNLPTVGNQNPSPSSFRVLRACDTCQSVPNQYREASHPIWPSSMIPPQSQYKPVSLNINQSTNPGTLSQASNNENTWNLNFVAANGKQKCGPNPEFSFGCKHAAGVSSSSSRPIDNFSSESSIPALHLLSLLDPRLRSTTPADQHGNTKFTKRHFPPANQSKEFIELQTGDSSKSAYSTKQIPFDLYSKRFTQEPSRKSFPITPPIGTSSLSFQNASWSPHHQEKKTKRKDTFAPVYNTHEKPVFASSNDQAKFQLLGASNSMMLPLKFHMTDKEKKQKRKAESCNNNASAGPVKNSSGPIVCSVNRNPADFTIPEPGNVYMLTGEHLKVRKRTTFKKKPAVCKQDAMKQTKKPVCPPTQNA

[7] = biological target: AT5G58230.1 MSI1 (Arabidopsis thaliana) (UniProt O22467); experiment: IP-MS rep 1
Sequence of AT5G58230.1 MSI1 (Arabidopsis thaliana) (O22467 whole entry): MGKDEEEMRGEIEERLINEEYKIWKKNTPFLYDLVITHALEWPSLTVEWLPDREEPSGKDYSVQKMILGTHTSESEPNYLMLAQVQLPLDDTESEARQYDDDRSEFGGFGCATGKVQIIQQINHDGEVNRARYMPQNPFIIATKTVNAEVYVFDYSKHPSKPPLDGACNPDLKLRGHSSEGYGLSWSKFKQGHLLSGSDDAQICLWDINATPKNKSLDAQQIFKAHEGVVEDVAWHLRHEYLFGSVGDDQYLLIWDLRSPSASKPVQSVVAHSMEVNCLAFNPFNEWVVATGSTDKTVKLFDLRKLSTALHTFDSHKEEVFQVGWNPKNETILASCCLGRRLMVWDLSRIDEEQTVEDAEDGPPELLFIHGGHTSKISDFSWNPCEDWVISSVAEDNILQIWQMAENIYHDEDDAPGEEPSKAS

[8] = biological target: T1, AT5G67580.1 TRB2 (Arabidopsis thaliana) (UniProt Q9FJW5); experiment: IP-MS rep 1
T1 sequence: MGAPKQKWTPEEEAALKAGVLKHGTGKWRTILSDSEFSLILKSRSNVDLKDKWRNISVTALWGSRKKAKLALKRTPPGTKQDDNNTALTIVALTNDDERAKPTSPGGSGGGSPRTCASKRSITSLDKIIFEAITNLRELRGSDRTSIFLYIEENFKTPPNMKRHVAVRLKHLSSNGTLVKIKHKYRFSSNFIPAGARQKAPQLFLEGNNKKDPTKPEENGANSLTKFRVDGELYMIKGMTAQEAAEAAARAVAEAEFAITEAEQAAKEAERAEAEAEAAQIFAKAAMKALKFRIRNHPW

[9] = biological target: AT1G22950.1 ICU11 (Arabidopsis thaliana) (UniProt Q3ED68); experiment: IP-MS rep 2
[10] = biological target: AT3G10480.3 NAC050 (Arabidopsis thaliana) (UniProt Q9SQX9); experiment: IP-MS rep 2
[11] = biological target: AT3G10490.2 NAC052 (Arabidopsis thaliana) (UniProt Q9SQY0); experiment: IP-MS rep 2
[12] = biological target: AT3G18210.1 CP2 (Arabidopsis thaliana) (UniProt P0DO23); experiment: IP-MS rep 2
[13] = biological target: AT3G20740.1 FIE (Arabidopsis thaliana) (UniProt Q9LT47); experiment: IP-MS rep 2
[14] = biological target: AT5G11530.1 EMF1 (Arabidopsis thaliana) (UniProt Q9LYD9); experiment: IP-MS rep 2
[15] = biological target: AT5G58230.1 MSI1 (Arabidopsis thaliana) (UniProt O22467); experiment: IP-MS rep 2
[16] = biological target: T1, AT5G67580.1 TRB2 (Arabidopsis thaliana); experiment: IP-MS rep 2
[17] = biological target: AT1G22950.1 ICU11 (Arabidopsis thaliana) (UniProt Q3ED68); experiment: X-link IP-MS
[18] = biological target: AT3G10480.3 NAC050 (Arabidopsis thaliana) (UniProt Q9SQX9); experiment: X-link IP-MS
[19] = biological target: AT3G10490.2 NAC052 (Arabidopsis thaliana) (UniProt Q9SQY0); experiment: X-link IP-MS
[20] = biological target: AT3G18210.1 CP2 (Arabidopsis thaliana) (UniProt P0DO23); experiment: X-link IP-MS
[21] = biological target: AT3G20740.1 FIE (Arabidopsis thaliana) (UniProt Q9LT47); experiment: X-link IP-MS
[22] = biological target: AT5G11530.1 EMF1 (Arabidopsis thaliana) (UniProt Q9LYD9); experiment: X-link IP-MS
[23] = biological target: AT5G58230.1 MSI1 (Arabidopsis thaliana) (UniProt O22467); experiment: X-link IP-MS
[24] = biological target: T1, AT5G67580.1 TRB2 (Arabidopsis thaliana); experiment: X-link IP-MS
[25] = biological target: AT1G49950.3 TRB1 (Arabidopsis thaliana) (UniProt Q8VWK4); experiment: IP-MS rep 1
[26] = biological target: AT2G23380.1 CLF (Arabidopsis thaliana) (UniProt P93831); experiment: IP-MS rep 1
Sequence of AT2G23380.1 CLF (Arabidopsis thaliana) (P93831 whole entry): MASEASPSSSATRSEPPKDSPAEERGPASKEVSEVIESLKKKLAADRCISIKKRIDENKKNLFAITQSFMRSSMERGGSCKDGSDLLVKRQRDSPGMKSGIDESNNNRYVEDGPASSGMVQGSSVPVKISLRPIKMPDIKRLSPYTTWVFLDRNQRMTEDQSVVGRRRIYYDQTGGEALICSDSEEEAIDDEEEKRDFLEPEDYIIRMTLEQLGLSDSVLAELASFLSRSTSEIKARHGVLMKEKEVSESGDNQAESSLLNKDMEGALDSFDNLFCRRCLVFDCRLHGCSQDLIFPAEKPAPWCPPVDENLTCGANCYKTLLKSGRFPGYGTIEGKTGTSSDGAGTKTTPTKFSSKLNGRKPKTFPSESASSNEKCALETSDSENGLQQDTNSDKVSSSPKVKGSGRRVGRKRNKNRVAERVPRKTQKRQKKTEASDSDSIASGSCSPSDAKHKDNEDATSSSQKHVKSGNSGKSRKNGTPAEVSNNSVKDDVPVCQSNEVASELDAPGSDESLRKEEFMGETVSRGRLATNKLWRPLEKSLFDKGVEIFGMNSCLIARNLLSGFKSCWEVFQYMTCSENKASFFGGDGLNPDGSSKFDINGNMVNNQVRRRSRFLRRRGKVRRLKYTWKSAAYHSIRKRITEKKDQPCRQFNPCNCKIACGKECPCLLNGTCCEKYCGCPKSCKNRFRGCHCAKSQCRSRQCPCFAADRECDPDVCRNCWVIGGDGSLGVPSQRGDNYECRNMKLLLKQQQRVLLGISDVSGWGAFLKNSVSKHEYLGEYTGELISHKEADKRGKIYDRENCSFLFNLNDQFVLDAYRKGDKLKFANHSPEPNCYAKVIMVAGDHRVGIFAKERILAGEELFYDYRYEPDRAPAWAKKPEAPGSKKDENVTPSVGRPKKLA

[27] = biological target: T2, AT4G02020.1 SWN (Arabidopsis thaliana) (UniProt Q9ZSM8); experiment: IP-MS rep 1
T2 sequence (looked up): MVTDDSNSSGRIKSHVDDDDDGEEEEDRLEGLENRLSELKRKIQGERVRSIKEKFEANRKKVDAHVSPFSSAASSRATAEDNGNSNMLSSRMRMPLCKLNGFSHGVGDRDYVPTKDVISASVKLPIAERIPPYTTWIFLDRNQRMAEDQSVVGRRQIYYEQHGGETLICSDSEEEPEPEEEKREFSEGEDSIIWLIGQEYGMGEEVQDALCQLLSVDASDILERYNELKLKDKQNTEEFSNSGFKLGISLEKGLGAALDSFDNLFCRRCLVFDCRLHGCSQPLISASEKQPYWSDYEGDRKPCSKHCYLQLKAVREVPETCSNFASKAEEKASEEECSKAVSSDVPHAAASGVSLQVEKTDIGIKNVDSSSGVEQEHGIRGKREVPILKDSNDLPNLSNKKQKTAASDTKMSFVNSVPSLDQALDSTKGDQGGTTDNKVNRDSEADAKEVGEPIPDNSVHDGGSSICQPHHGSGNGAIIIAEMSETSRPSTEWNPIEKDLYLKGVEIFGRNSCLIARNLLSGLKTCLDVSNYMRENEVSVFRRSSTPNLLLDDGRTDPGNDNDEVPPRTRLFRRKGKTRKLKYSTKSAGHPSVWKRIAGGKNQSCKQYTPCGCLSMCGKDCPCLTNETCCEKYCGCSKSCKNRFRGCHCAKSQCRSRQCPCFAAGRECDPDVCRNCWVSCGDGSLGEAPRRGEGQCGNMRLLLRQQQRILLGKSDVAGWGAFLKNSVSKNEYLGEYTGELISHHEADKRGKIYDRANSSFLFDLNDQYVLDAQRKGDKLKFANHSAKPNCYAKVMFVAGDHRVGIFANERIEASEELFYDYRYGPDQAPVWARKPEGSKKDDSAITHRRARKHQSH

[28] = biological target: T3, AT5G17690.1 LHP1 (Arabidopsis thaliana) (UniProt Q946J8); experiment: IP-MS rep 1
T3 sequence: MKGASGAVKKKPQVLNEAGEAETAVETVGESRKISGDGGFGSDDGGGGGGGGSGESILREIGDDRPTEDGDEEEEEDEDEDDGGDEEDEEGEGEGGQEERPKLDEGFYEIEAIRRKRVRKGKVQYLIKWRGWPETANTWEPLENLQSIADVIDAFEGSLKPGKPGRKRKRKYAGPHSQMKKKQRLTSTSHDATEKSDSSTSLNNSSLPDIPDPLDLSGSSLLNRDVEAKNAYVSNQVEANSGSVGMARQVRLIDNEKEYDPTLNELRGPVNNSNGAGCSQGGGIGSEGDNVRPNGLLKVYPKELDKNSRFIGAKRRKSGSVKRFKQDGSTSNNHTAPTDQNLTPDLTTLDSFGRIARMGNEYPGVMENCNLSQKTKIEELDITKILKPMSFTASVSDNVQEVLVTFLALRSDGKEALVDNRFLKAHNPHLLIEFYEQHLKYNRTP

[29] = biological target: AT5G51230.1 EMF2 (Arabidopsis thaliana) (UniProt Q8L6Y4); experiment: IP-MS rep 1
[30] = biological target: AT1G49950.3 TRB1 (Arabidopsis thaliana) (UniProt Q8VWK4); experiment: IP-MS rep 2
[31] = biological target: AT2G23380.1 CLF (Arabidopsis thaliana) (UniProt P93831); experiment: IP-MS rep 2
[32] = biological target: T2, AT4G02020.1 SWN (Arabidopsis thaliana); experiment: IP-MS rep 2
[33] = biological target: T3, AT5G17690.1 LHP1 (Arabidopsis thaliana); experiment: IP-MS rep 2
[34] = biological target: AT5G51230.1 EMF2 (Arabidopsis thaliana) (UniProt Q8L6Y4); experiment: IP-MS rep 2
[35] = biological target: AT1G49950.3 TRB1 (Arabidopsis thaliana) (UniProt Q8VWK4); experiment: X-link IP-MS
[36] = biological target: AT2G23380.1 CLF (Arabidopsis thaliana) (UniProt P93831); experiment: X-link IP-MS
[37] = biological target: T2, AT4G02020.1 SWN (Arabidopsis thaliana); experiment: X-link IP-MS
[38] = biological target: T3, AT5G17690.1 LHP1 (Arabidopsis thaliana); experiment: X-link IP-MS
[39] = biological target: AT5G51230.1 EMF2 (Arabidopsis thaliana) (UniProt Q8L6Y4); experiment: X-link IP-MS
[40] = biological target: AT4G20400.1 JMJ14 (Arabidopsis thaliana) (UniProt Q8GUI6); experiment: IP-MS rep 1
Sequence of AT4G20400.1 JMJ14 (Arabidopsis thaliana) (Q8GUI6 whole entry): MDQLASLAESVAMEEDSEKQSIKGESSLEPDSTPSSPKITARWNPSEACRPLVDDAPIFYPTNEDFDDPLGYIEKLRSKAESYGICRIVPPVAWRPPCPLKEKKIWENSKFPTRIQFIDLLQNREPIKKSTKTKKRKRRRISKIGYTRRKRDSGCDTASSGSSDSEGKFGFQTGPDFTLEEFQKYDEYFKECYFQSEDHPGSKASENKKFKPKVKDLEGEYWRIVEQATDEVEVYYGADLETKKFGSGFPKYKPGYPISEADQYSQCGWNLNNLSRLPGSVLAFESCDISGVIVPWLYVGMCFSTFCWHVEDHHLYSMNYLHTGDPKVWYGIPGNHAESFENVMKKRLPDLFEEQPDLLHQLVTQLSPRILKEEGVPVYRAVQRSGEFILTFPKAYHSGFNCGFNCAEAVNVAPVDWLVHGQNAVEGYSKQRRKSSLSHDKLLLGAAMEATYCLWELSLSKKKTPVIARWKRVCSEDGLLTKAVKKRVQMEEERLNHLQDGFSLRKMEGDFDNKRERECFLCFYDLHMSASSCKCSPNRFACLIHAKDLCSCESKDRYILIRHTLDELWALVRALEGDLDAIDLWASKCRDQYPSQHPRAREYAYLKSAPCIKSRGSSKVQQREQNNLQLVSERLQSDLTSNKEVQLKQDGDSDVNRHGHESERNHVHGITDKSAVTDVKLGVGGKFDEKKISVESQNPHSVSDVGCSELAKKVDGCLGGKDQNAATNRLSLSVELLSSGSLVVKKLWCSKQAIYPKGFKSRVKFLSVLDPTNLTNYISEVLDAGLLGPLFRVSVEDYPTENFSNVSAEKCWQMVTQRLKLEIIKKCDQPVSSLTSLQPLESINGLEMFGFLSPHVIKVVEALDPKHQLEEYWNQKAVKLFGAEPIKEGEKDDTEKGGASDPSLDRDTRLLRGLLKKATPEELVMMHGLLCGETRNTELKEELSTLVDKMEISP

[41] = biological target: AT4G38130.1 HDA19 (Arabidopsis thaliana) (UniProt O22446); experiment: IP-MS rep 1
[42] = biological target: AT5G63110.1 HDA6 (Arabidopsis thaliana) (UniProt Q9FML2); experiment: IP-MS rep 1
[43] = biological target: AT4G20400.1 JMJ14 (Arabidopsis thaliana) (UniProt Q8GUI6); experiment: IP-MS rep 2
[44] = biological target: AT4G38130.1 HDA19 (Arabidopsis thaliana) (UniProt O22446); experiment: IP-MS rep 2
[45] = biological target: AT5G63110.1 HDA6 (Arabidopsis thaliana) (UniProt Q9FML2); experiment: IP-MS rep 2

Sequence of AT3G10490.2 NAC052 (Arabidopsis thaliana) (Q9SQY0 whole entry): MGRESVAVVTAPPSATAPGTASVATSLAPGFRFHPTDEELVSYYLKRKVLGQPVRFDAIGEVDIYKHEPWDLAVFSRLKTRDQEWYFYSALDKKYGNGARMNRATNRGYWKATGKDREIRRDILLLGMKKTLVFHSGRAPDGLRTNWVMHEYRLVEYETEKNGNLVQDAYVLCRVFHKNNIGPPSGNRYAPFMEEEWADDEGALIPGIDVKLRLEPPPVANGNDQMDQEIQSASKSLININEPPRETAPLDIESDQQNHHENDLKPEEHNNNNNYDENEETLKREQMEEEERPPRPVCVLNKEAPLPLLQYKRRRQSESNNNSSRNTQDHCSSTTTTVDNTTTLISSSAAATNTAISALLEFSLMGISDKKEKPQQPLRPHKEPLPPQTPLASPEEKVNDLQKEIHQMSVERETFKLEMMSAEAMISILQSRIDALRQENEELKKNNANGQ
Sequence of AT3G10480.3 NAC050 (Arabidopsis thaliana) (Q9SQX9 whole entry): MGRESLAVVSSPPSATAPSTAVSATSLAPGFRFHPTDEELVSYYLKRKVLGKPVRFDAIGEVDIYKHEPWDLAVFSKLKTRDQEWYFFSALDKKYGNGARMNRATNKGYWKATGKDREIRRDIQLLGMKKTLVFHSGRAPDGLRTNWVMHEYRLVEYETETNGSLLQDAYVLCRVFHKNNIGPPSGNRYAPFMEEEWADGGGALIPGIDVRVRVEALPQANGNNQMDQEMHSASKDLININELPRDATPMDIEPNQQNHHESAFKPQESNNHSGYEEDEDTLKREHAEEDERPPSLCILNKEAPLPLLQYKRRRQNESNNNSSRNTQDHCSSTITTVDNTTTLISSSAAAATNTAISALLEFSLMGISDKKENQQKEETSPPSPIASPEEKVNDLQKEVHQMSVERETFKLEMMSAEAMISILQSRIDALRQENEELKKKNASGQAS

Row | Substance | IP-MS count [1] | IP-MS count [2] | IP-MS count [3] | IP-MS count [4] | IP-MS count [5] | IP-MS count [6] | IP-MS count [7] | IP-MS count [9] | IP-MS count [10] | IP-MS count [11] | IP-MS count [12] | IP-MS count [13] | IP-MS count [14] | IP-MS count [15] | IP-MS count [17] | IP-MS count [18] | IP-MS count [19] | IP-MS count [20] | IP-MS count [27] | IP-MS count [32] | further results
1 | FLAG-TRB1 (from UniProt Q8VWK4 1-300) | 75 | 33 | 103 | 13 | 1 | 3 | 11 | 79 | 35 | 103 | 17 | 3 | 2 | 12 | 27 | 40 | 55 | 11 |  |  | IP-MS count [8]: 0; IP-MS count [16]: 0; IP-MS count [21]: 5; IP-MS count [22]: 11; IP-MS count [23]: 12; IP-MS count [24]: 2
2 | FLAG-TRB2 (from UniProt Q9FJW5 1-299) | 53 | 1 | 11 | 4 | 30 | 55 | 26 | 50 | 1 | 22 | 5 | 28 | 56 | 21 | 33 | 39 | 55 | 17 | 11 | 12 | IP-MS count [25]: 0; IP-MS count [26]: 5; IP-MS count [28]: 15; IP-MS count [29]: 10; IP-MS count [30]: 4; IP-MS count [31]: 5; IP-MS count [33]: 15; IP-MS count [34]: 15; IP-MS count [35]: 10; IP-MS count [36]: 15; IP-MS count [21]: 35; IP-MS count [37]: 33; IP-MS count [22]: 90; IP-MS count [38]: 17; IP-MS count [39]: 27; IP-MS count [23]: 30
3 | FLAG-TRB3 (from UniProt Q9M2X3 1-295) | 79 | 5 | 24 | 38 | 34 | 81 | 37 | 73 | 4 | 28 | 31 | 41 | 83 | 35 | 37 | 39 | 59 | 12 | 16 | 24 | IP-MS count [25]: 0; IP-MS count [26]: 15; IP-MS count [28]: 15; IP-MS count [29]: 23; IP-MS count [30]: 0; IP-MS count [31]: 19; IP-MS count [33]: 19; IP-MS count [34]: 23; IP-MS count [35]: 9; IP-MS count [36]: 19; IP-MS count [21]: 34; IP-MS count [37]: 36; IP-MS count [22]: 104; IP-MS count [38]: 18; IP-MS count [39]: 29; IP-MS count [23]: 31
4 | TRBIP1 (bait of the TRBIP1 IP-MS) | 32 |  | 10 |  | 22 | 36 | 20 | 19 |  | 2 |  | 3 | 7 | 9 |  |  |  |  | 15 | 6 | IP-MS count [26]: 7; IP-MS count [40]: 7; IP-MS count [41]: 4; IP-MS count [28]: 14; IP-MS count [29]: 10; IP-MS count [42]: 7; IP-MS count [31]: 0; IP-MS count [43]: 0; IP-MS count [44]: 3; IP-MS count [33]: 8; IP-MS count [34]: 3; IP-MS count [45]: 5
5 | TRBIP2 (bait of the TRBIP2 IP-MS) | 16 |  | 4 |  |  | 4 | 3 | 4 |  | 0 |  |  | 0 | 0 |  |  |  |  | 3 | 0 | IP-MS count [40]: 3; IP-MS count [41]: 4; IP-MS count [42]: 10; IP-MS count [43]: 0; IP-MS count [44]: 1; IP-MS count [45]: 3
